Among the data in patent US20190352376A1 are EC50 (read off the curve), signal intensity (arbitrary fluorescent units) and Kd values, retold here.

Test [1] has as its target T1, peptide-conjugate (Example 1; lactosyl-Ser-…-Cys coupled to KLH) (influenza virus).
For test [2], the target named is hemagglutinin of H5N1 A/Indonesia/05/2005 (influenza virus H5N1 A/Indonesia/05/2005).
Test [3] shares this target. The test can be described thus: dot blot, 4M urea; rHA (Prot. Sc.), dot 7.
Test [4] addresses hemagglutinin of H5N1 A/Vietnam/1203/2004 (influenza virus H5N1 A/Vietnam/1203/2004). The test can be described thus: dot blot, 4M urea; rHA (Prot. Sc.), dot 8.
The next test concerns the target Non-related protein. The test can be described thus: dot blot, 4M urea; negative control, dot 16.
The target of test [5] is hemagglutinin of H7N7 A/Netherlands/219/2003 (influenza virus H7N7 A/Netherlands/219/2003). Kind of test: dot blot, 4M urea; rHA (Prot. Sc.), dot 9.
In test [6] the target is hemagglutinin of H9N2 A/Hong Kong/1073/1999 (influenza virus H9N2 A/Hong Kong/1073/1999). The test can be described thus: dot blot, 4M urea; rHA (Prot. Sc.), dot 10.
Test [7] addresses peptide of Example 1 (influenza virus). The test can be described thus: SPR, mAb captured on anti-mouse Fc, peptide injected; average. For orientation: SPR reads the build-up and loss of mass on a sensor chip optically.
For test [8] the target is unchanged. The test can be described thus: SPR, mAb captured on anti-mouse Fc, peptide injected.
Test [9] deals with T1, peptide-conjugate (Example 1; …). This is another data set of the same source.

Where “and” joins values, the source holds several entries; their conditions need not be identical. Equal values may be shown once. Read-outs that look alike come from different tables or passages of the source.

The EC50 (read off the curve) is the midpoint of the concentration-response curve. What is called Kd is the constant that tells how readily two partners part at equilibrium. Low readings indicate tighter binding, high ones weaker binding.

B1: F211-9D1 (antibody, V domains shown)
VL: DIVMSQSPSSLAVSVGEKVTMSCKSSQSLLNSRNQKNHLAWYQQKPGQSPKLLIYWASTRESGVPDRFSGDGSGTDFTLTISSVKAEDLAVYYCQQYYTYRTFGGGTKLEIK
VH: DVQLQESGPGLVKPSQSLSLTCSVTGYSITSDYYWNWIRQFPGNKLEWMAYIGYDGSKNYNPSLKNRISITRDTSKNQFFLKLNSVTTDDTATYYCTRDRANWDDYFDYWGQGTTLTVSS
For B1, the EC50 (read off the curve) in [1] came out at 30 ng/mL.

B2: F211-11H12 (antibody, V domains shown)
VH: DVQLQESGPGLVKPSQSLSLTCSVTGYSITSDYYWNWIRQFPGNKLEWMAYIGYDGTKNYNPSLKNRISITRDTSKNQFFLKLNSVTTDDTATYYCTRDRANWDDYFDYWGQGTTLTVSS
VL: DIVMSQSPSSLAVSVGEKVTMSCKSSQSLLNSRNQKNHLAWYQQKPGQSPKLLIYWASTRESGVPDRFTGDGSGTDFTLTISSVKAEDLAVYYCQQYYTYRTFGGGTKLEIK
Turning to B2, the signal intensity (arbitrary fluorescent units) in test [2] is 43100; in [3] it was 22200; in [4], 45900; with Non-related protein it was 38; in test [5] it was 488; in test [6], 3570.

B3: F211-9D1 (antibody, V domains shown)
VH: DVQLQESGPGLVKPSQSLSLTCSVTGYSITSDYYWNWIRQFPGNKLEWMAYIGYDGSKNYNPSLKNRISITRDTSKNQFFLKLNSVTTDDTATYYCTRDRANWDDYFDYWGQGTTLTVSS
VL: DIVMSQSPSSLAVSVGEKVTMSCKSSQSLLNSRNQKNHLAWYQQKPGQSPKLLIYWASTRESGVPDRFSGDGSGTDFTLTISSVKAEDLAVYYCQQYYTYRTFGGGTKLEIK
For the molecule B3, the signal intensity (arbitrary fluorescent units) in test [2] was found to be 46700; in test [3], 10100; in test [4] it was 46800; in the test with Non-related protein it was 47; in test [5] it was 425; in test [6], 3760.

B4: F211-11H12 (antibody, V domains shown)
VL: DIVMSQSPSSLAVSVGEKVTMSCKSSQSLLNSRNQKNHLAWYQQKPGQSPKLLIYWASTRESGVPDRFTGDGSGTDFTLTISSVKAEDLAVYYCQQYYTYRTFGGGTKLEIK
VH: DVQLQESGPGLVKPSQSLSLTCSVTGYSITSDYYWNWIRQFPGNKLEWMAYIGYDGTKNYNPSLKNRISITRDTSKNQFFLKLNSVTTDDTATYYCTRDRANWDDYFDYWGQGTTLTVSS
For the molecule B4, the Kd in test [7] and in test [8] was 0.465 nM each time.

B5: CHO-11H12 (antibody, V domains shown)
VL: DIVMSQSPSSLAVSVGEKVTMSCKSSQSLLNSRNQKNHLAWYQQKPGQSPKLLIYWASTRESGVPDRFTGDGSGTDFTLTISSVKAEDLAVYYCQQYYTYRTFGGGTKLEIK
VH: DVQLQESGPGLVKPSQSLSLTCSVTGYSITSDYYWNWIRQFPGNKLEWMAYIGYDGTKNYNPSLKNRISITRDTSKNQFFLKLNSVTTDDTATYYCTRDRANWDDYFDYWGQGTTLTVSS
In turn, B5 registered a dissociation constant Kd in [7] of 0.639 nM.

B6: F211-10A9 (antibody, V domains shown)
VL: DIVMTQSPSSLAMSVGQKVTMSCKSSQSLLNSDTQKNFLAWYQQKPGQSPKILVYFASTKESGVPDRFIGSGSGTDFTLTITSVQAEDLADYFCQQYYSIPLTFGAGTKLELK
VH: QIQLQQSGPELVKPGAPVKISCKASGYTFTDYYIHWVNQRPGQGLEWIGYIYPGNGHTVYNQKFKVRATLTADNPSSTAYLQLNSLTSEDSGVYFCAYDLFNYWGQGTLVTVSA
Take B6: the Kd in test [7] and in test [8] was 0.338 nM in each case. Further, in test [9], the EC50 (read off the curve) is 50 ng/mL and 30 ng/mL.

B7: CHO-10A9 (antibody, V domains shown)
VL: DIVMTQSPSSLAMSVGQKVTMSCKSSQSLLNSDTQKNFLAWYQQKPGQSPKILVYFASTKESGVPDRFIGSGSGTDFTLTITSVQAEDLADYFCQQYYSIPLTFGAGTKLELK
VH: QIQLQQSGPELVKPGAPVKISCKASGYTFTDYYIHWVNQRPGQGLEWIGYIYPGNGHTVYNQKFKVRATLTADNPSSTAYLQLNSLTSEDSGVYFCAYDLFNYWGQGTLVTVSA
In the case of B7, the Kd in test [7] amounted to 0.365 nM. That is a sub-nanomolar value.

B8: F211-10A9 (antibody, V domains shown)
VH: QIQLQQSGPELVKPGAPVKISCKASGYTFTDYYIHWVNQRPGQGLEWIGYIYPGNGHTVYNQKFKVRATLTADNPSSTAYLQLNSLTSEDSGVYFCAYDLFNYWGQGTLVTVSA
VL: DIVMTQSPSSLAMSVGQKVTMSCKSSQSLLNSDTQKNFLAWYQQKPGQSPKILVYFASTKESGVPDRFIGSGSGTDFTLTITSVQAEDLADYFCQQYYSIPLTFGAGTKLELK
For the molecule B8, the signal intensity (arbitrary fluorescent units) in [2] was 28600; in test [3], 165; in test [4], 8260; with Non-related protein, 34; in [5], 42000; in test [6], 2970.
